According to publication PMC8693861, “Structure, mechanism, and inhibition of Hedgehog acyltransferase” (Molecular Cell, 2021):

B1: nanobody NB169 (VHH)
VHH: QVQLVESGGGLVQAGGSLRLSCAASGSIRSINGMGWYRQAPGKQRELVAALSSGGSTNYADSVKGRFTISRDNAKKTVNLQMNSLKPEDTAVYYCNARRGGRSWSEGPPYDYWGQGTQVTVSS
B2: nanobody NB177 (VHH)
VHH: QVQLVESGGGLVQAGGSLRLSCTASGAIFSTYDVSWYRQAPEKPRELVAIITRGGNTHYADTVKGRFTISRDNAKNTVYLQMNSLKPEDTAVYYCHAGVQGAMLGPRNYWGQGTQVTVSS

Molecular target: biotinylated human HHAT-Avi-1D4 (pHR-CMV-TetO2-HHAT-wildtype-Avi-1D4) (Homo sapiens, natural variant VAR_024743, strain, biotin on the biotinylation tag)
Test: cell-based or functional assay

Sequence of biotinylated human HHAT-Avi-1D4 (pHR-CMV-TetO2-HHAT-wildtype-Avi-1D4) (Homo sapiens, natural variant VAR_024743, strain, biotin on the biotinylation tag) (Q5VTY9 other isoform, or with tags, fused parts or gaps, change not shown): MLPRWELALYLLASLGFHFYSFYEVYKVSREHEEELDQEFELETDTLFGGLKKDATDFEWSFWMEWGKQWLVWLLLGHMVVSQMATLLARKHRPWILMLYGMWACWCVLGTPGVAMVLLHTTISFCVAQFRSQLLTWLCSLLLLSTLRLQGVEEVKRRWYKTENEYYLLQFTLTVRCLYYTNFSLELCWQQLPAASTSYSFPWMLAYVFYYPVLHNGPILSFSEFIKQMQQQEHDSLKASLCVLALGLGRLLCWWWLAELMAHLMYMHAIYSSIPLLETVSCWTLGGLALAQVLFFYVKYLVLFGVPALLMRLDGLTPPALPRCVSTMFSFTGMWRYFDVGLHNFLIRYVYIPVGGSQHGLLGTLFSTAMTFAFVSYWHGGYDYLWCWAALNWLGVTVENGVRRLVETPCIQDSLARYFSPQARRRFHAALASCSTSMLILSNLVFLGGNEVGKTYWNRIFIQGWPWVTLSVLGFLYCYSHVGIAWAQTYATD

| Binder | IC50 of inhibition of HHAT-catalysed palmitoyl transfer to a SHH peptide (acyl-cLIP assay); blocks HHAT with SHH |
| --- | --- |
| B1 | 1.3 nM |
| B2 | 0.9 nM |
